Reference: PMC3956856, “Interaction of Kinase-Interaction-Motif Protein Tyrosine Phosphatases with the Mitogen-Activated Protein Kinase ERK2” (PLoS ONE, 2014)
Entries after “also recorded” stand apart in the source; their conditions may differ. Where two headings read alike, the source gives them in different places.

Experiments:
HePTP (Homo sapiens) = HePTP (Homo sapiens) (UniProt P35236); settings: cited from earlier work
PTPSL (Homo sapiens) = PTPSL (Homo sapiens) (UniProt Q15256); settings: cited from earlier work
[1] = molecular target: DUSP16 MKBD MKBD (Homo sapiens) (UniProt Q9BY84); test: ITC; settings: cited from earlier work
ERK2 [2] = molecular target: T1, ERK2 (Rattus norvegicus, UniProt P63086); test: Isothermal titration calorimetry with ERK2; type: binding
T1 construct: gene Mapk1; made in house
Method: The PTPSLKIM peptide (residues 331–348), STEPKIM (residues 213–229) and STEPKIMKIS (residues 213–256) were synthesized, HPLC purified and verified by mass spectrometry (MS) (>98% purity; Biosynthesis, Inc.). Expression and purification of ERK2 and PTPSLKIMKIS (residues 332–373) was carried out as previously described, [15]. PTPSL (residues 332–655, human), STEP (residues 213–539, mouse) and PSChimera (PTPSL residues 332–373 with STEP residues 257–539; gene synthesized by DNA 2.0) were expressed and purified using the protocol previously described in detail for STEPCAT (residues 244–539). The DUSP16 MAPK binding domain (residues 5–138, human) was expressed and purified as previously described. All purified proteins were stored at −80 °C until use at which point they were thawed and exchanged into the appropriate buffer using size exclusion chromatography (SEC; Superdex 75 26/60; GE Healthcare). The final protein buffer was dependent on the experiment performed. For ITC experiments, the final SEC purification was performed in ITC buffer (10 mM Tris pH 7.5, 150 mM NaCl, 0.1 mM EDTA, 0.5 mM TCEP); for SAXS experiments, the final SEC purification was performed in SAXS buffer (50 mM HEPES pH 6.8, 150 mM NaCl, 5 mM dithiothreitol). PTPSLKIM, STEPKIM and STEPKIMKIS peptides were solubilized in ITC buffer prior to ITC measurements.
ITC experiments were performed at 25 °C using a VP-ITC microcalorimeter (Microcal Inc.). Titrant (10 μL per injection) was injected into the sample cell over a period of 20 seconds with a 250 second interval between titrations to allow for complete equilibration and baseline recovery. 28 injections were delivered during each experiment and the solution in the sample cell was stirred at 307 rpm to ensure rapid mixing. To determine the thermodynamic parameters (ΔH, ΔS, ΔG) and binding constants (K) of the ERK2:PTPSLKIM, ERK2:PTPSL, ERK2:STEP and ERK2:PSChimera interactions, PTPSLKIM, PTPSL, STEP and PSChimera were titrated into ERK2. To determine the same parameters for the ERK2:STEPKIM, ERK2:PTPSLKIMKIS and ERK2:STEPKIMKIS interaction, ERK2 was titrated into the peptides. Titrants were chosen based on the amount of purified protein/peptide available for the experiment. For all titrations the concentrations were slightly varied to ensure independence of the Kd from the protein/peptide concentrations. Data were analyzed with a one-site binding model assuming a binding stoichiometry of 1∶1 using Origin 7.0 software. A nonlinear least-squares algorithm and the titrant and sample cell concentrations were used to fit the heat flow per injection to an equilibrium binding equation, providing values of the stoichiometry (n), change in enthalpy (ΔH) and binding constant (K). All data were repeated in triplicate.

[3] = molecular target: T2, extracellular signal-regulated kinase 2 (ERK2), unphosphorylated (UniProt P63086 1-358); test: ITC; DUSP16 MKBD and ERK2, which was the titrant is not stated; 25 °C; ITC buffer; one-site model; triplicate; settings: both partners purified
T2 construct: ERK2 (extracellular signal-regulated kinase 2), unphosphorylated; also called MAPK; source: final SEC (Superdex 75 26/60)

p38α [4] = settings: values previously published, ref [14], [15], [17], [18], cited from earlier work
Excerpt: We used ITC measurements to determine the binding affinity of STEP and PTPSL for unphosphorylated ERK2 ( Table 1; Figure S1). […] This complex has a ∼3-times lower Kd (tighter binding) than the next tightest complex, ERK2:PTPSL, and a nearly 70-fold greater affinity than the weakest complex, p38α:HePTP [15]. Like STEP, PTPSL binds ERK2 more tightly (∼3.5-fold) than p38α. We also tested peptides that include the kinase specificity s ... || We also generated a chimeric protein in which we fused the PTPSLKIMKIS to STEPCAT (PSchimera; Figure 1A ). […] Thus, they only adopt a single conformation when they bind their respective MAPKs. This is different from the MAPK-binding domains (MKBD) of MAPK phosphatases (MKP; dual specificity phosphatases; DUSPs), [26]. In MKPs, the KIM sequence is part of a stable, folded domain and thus adopts a single, ordered conformation in both the unbound and MAPK-bound states, [28]. […] Our ... || (+ 1 further places)

p38α [5] = settings: NMR; MAPK-binding domain; ref [18]; cited from earlier work
Excerpt: Although there are a few structural differences between ERK2 and p38α in this region (e.g., the activation loop is six residues longer in ERK2), nearly all residues that that we sh ... || The KIM domains of KIM-PTPs are intrinsically disordered in solution [14], [15]. Thus, they only adopt a single conformation when they bind their respective MAPKs. This is different from the MAPK-binding domains (MKBD) of MAPK phosphatases (MKP; dual specificity phosphatases; DUSPs), [26]. In MKPs, the KIM sequence is part of a stable, folded domain and thus adopts a single, ordered conformation in both the unbound and MAPK-bound states, [28]. […] Our ...

[6] = molecular target: T2, extracellular signal-regulated kinase 2 …; test: ITC; PTPSLKIM, PTPSL, STEP or PSChimera titrated into ERK2 in the cell; 25 °C; 10 mM Tris pH 7.5, 150 mM NaCl, 0.1 mM EDTA, 0.5 mM TCEP; one-site model; triplicate; settings: both partners purified
ERK2 [7] = molecular target: T1, ERK2; test: SAXS of resting-state complexes with ERK2; settings: ERK2:STEP; 24 GASBOR envelopes, DAMAVER; on Dmax shorter than that of the ERK2:HePTP complex: values in Å; on Dmax, P(r) function: values in Å; on Rg smaller than that of the ERK2:HePTP resting-state complex: values in Å
ERK2 [8] = molecular target: T1, ERK2; test: SAXS of resting-state complexes with ERK2; on Dmax shorter than that of the ERK2:HePTP complex: values in Å; on Dmax, P(r) function: values in Å; on Rg smaller than that of the ERK2:HePTP resting-state complex: values in Å
Method: To form the ERK2:STEP resting-state complex, purified, unphosphorylated ERK2 was incubated in a 1∶1 molar ratio with purified STEP213-539 at room temperature for 30 minutes and purified using SEC (Superdex 75 26/60 [GE Healthcare]; SAXS buffer). Data for the ERK2:STEP complex were recorded on samples at 0.7, 1.2 and 1.7 mg/ml. All samples were prepared within 48 hours of data acquisition and stored on ice at 4 °C. All samples were filtered ([…], Whatman) immediately prior to data collection. All data was recorded at Beamline X9A at the National Synchrotron Light Source (NSLS) using a Dectris Pilatus 300k (3.4 m distance from the sample for SAXS) and a Photonic Science CCD (0.47 m from the sample for WAXS) detector. 20 μl of sample was continuously flowed through a 1 mm diameter capillary and exposed to an X-ray beam for 30 seconds. Normalization for beam intensity, buffer subtraction and merging of the data from both detectors were carried out using PRIMUS [20]. A Guinier approximation, I(q) = I(0)exp(-q^2Rg ^2/3), where a plot of ln[I(q)] and q^2 is linear for q<1.3/Rg (q is the scattering vector q = 4πsin(θ)/λ; λ, wavelength of X-rays and 2θ is the angle between the incident beam and the scattering X-rays) was performed on at least four independent scattering trials and averaged to determine the radius of gyration (Rg). The linearity of the Guinier region and the intensity at zero scattering angle, I(0), were used to validate that all samples were monodisperse in solution. I(0)/c, where c is concentration, was consistent for all measurements. GNOM [21] was used to determine the pair-distribution function, P(r), for the ERK2:STEP resting-state complex using data collected on the 1.7 mg/ml sample. Twenty-four envelopes were generated using GASBOR [22] and were aligned and averaged using the DAMAVER program suite.

Sequence of PTPSL (Homo sapiens) (Q15256 22-657): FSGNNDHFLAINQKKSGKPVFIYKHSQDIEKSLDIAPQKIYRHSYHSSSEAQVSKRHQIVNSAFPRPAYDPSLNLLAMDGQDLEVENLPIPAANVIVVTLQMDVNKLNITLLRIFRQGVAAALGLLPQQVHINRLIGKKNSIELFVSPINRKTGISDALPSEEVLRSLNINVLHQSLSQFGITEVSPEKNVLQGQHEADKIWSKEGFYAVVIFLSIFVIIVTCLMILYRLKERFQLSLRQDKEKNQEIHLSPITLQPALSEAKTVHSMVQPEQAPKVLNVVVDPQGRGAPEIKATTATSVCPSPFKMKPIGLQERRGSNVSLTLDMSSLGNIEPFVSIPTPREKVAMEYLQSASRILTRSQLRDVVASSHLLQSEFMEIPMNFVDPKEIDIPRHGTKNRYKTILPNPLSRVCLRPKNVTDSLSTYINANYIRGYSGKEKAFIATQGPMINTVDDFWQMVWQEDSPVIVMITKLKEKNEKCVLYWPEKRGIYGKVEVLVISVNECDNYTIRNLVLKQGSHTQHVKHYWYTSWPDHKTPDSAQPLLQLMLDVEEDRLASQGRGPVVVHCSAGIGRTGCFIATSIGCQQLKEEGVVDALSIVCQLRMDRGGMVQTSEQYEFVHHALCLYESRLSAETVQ
Sequence of HePTP (Homo sapiens) (P35236 whole entry): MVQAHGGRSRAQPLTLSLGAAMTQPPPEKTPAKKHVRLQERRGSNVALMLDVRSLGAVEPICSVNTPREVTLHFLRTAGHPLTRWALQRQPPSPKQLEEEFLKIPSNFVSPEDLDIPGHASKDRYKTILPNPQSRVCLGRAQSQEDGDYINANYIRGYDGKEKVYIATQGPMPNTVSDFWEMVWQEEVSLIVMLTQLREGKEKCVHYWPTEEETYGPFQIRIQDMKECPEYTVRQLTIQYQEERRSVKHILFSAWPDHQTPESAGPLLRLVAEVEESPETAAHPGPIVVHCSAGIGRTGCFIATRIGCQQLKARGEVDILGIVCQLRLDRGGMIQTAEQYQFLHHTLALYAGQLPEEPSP

ERK2 (from UniProt P63086)
Kd (HePTP (Homo sapiens)): 370 nM

p38α (from UniProt Q16539)
Kd (PTPSL (Homo sapiens)): 380 nM | Kd [1]: 900 nM

B1: DUSP16 MAPK binding domain (residues 5-138, human) (domain or fragment, UniProt Q9BY84 5-138, looked up)
chain: MIGTQIVTERLVALLESGTEKVLLIDSRPFVEYNTSHILEAININCSKLMKRRLQQDKVLITELIQHSAKHKVDIDCSQKVVVYDQSSQDVASLSSDCFLTVLLGKLEKSFNSVHLLAGGFAEFSRCFPGLCEG
notes: also called DUSP16 MKBD; DUSP16 MKB domain; source: final SEC
weaker binding to ERK2 than to p38α (difference in Kd) (ERK2 [2]; ITC Kd, ERK2 versus p38α): ~1.4 fold | affinity for ERK2 compared with p38α (in words) (ERK2 [2]; ITC, ERK2 versus p38α): binds these MAPKs with similar affinities; also recorded: binds both MAPKs with similar affinities | Kd [3]: 1300 nM | dH [3]: -4.8 kcal/mol | Kd (p38α [4]; listed as DUSP16MKBD-KIM): 890 ± 230 nM | Kd (p38α [4]): ~900 nM | interaction with p38α by NMR (in words) (p38α [5]): interacts at multiple positions with p38α

B2: STEP (residues 213-539, mouse) (domain or fragment, UniProt P54830 213-539, looked up)
chain: MGLQERRGSNVSLTLDMCTPGCNEEGFGYLVSPREESAHEYLLSASRVLRAEELHEKALDPFLLQAEFFEIPMNFVDPKEYDIPGLVRKNRYKTILPNPHSRVRLTSPDPEDPLSSYINANYIRGYSGEEKVYIATQGPIVSTVADFWRMVWQERTPIIVMITNIEEMNEKCTEYWPEEQVVHDGVEITVQKVIHTEDYRLRLISLRRGTEERSLKHYWFTSWPDQKTPDRAPPLLHLVREVEEAAQQEGPHCSPIIVHCSAGIGRTGCFIATSICCQQLRREGVVDILKTTCQLRQDRGGMIQTCEQYQFVHHAMSLYEKQLSLQS
notes: STEP (PTPN5, striatal enriched protein tyrosine phosphatase), mouse, residues 213-539 (KIM, KIS and catalytic domain); The results loosely call this construct 'full-length STEP'; the construct is residues 213-539; also called STEP_(213-539); PTPN5; source: final SEC
relative binding to ERK2 (in words) (ERK2 [2]; ERK2, ITC): tightest binding complex of all MAPK:KIM-PTP complexes tested; also recorded: more strongly than does HePTP | tighter binding to ERK2 than the STEPKIM peptide (ERK2 [2]; ERK2, ITC, versus STEPKIM): 11 times | lower Kd (tighter binding) than the next tightest complex, ERK2:PTPSL (ERK2 [2]; ERK2:STEP versus ERK2:PTPSL): ~3 times | tighter binding to ERK2 than to p38α (ERK2 [2]; ITC Kd, ERK2 versus p38α): ~12 times | tighter binding to ERK2 than to p38α (fold difference in affinity) (ERK2 [2]; ITC Kd, ERK2 versus p38α): 12 fold | affinity for ERK2 compared with p38α (in words) (ERK2 [2]; ITC, ERK2 versus p38α): higher binding affinity for ERK2 than for p38α; also recorded: bind more strongly to ERK2 | TΔS (ERK2 [2]; unphosphorylated ERK2, ITC, 25 °C, 10 mM Tris pH 7.5, 150 mM NaCl, 0.1 mM EDTA, 0.5 mM TCEP, average and standard deviation, triplicate): -19.7 ± 2.0 kcal/mol | Kd [6]: 48 nM | dH [6]: -29.5 kcal/mol | NSD, structure modeling (ERK2 [7]): 1.31±0.05 | Dmax, P(r) function (ERK2 [8]; ERK2:STEP resting-state complex, GNOM, 1.7 mg/ml sample): 95 Å | Rg, P(r) function calculation (ERK2 [8]; ERK2:STEP resting-state complex, GNOM, 1.7 mg/ml sample, Q-range 0.013–0.303 Å^−1): 31.1 Å | Dmax shorter than that of the ERK2:HePTP complex (ERK2 [8]; ERK2:STEP versus ERK2:HePTP): ~15 Å | Rg smaller than that of the ERK2:HePTP resting-state complex (ERK2 [8]; ERK2:STEP versus ERK2:HePTP): ~3.0 Å | Rg and Dmax compared with p38α:STEP complex (in words) (ERK2 [8]; ERK2:STEP versus p38α:STEP resting-state complex): highly similar to those determined for the p38α:STEP resting-state complex | χ^2, structure modeling (ERK2 [8]; ERK2:STEP, 24 GASBOR envelopes): 2.3±0.2 | shape of the complex with ERK2 (in words) (ERK2 [8]; resting-state complex, SAXS): compact; also recorded: more compact, globular complexes | Kd (p38α [4]): 577 ± 71 nM
